Measured values published in the supplement of paper PMC9112550, “Optimization of the antimicrobial peptide Bac7 by deep mutational scanning” (BMC Biology, 2022).

Tested on: Escherichia coli TOP10
Test: shrunken log2 fold change of peptide-encoding DNA abundance (4.5 h post-induction vs induction); higher = less antimicrobial activity (less host growth inhibition)
Conditions: time post-induction: 4.5 h; library: site-saturation at positions 5, 18, 19, 20
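Note: peptides expressed intracellularly from a pBAD plasmid library in pooled LB shake-flask culture, induced with 0.3% L-arabinose, DNA abundance read by NGS, three biological replicates, DESeq2 with apeglm shrinkage.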

Sequence	shrunken log2 fold change
RRIRDRPPRLPRPRPRPTEQPRP	-0.0141
RRIRHRPPRLPRPRPRPCMPPRP	0.0401
RRIRTRPPRLPRPRPRPQHEPRP	-0.00128
RRIRWRPPRLPRPRPRPIIFPRP	-0.303
RRIRCRPPRLPRPRPRPDADPRP	0.472
RRIRNRPPRLPRPRPRPYIHPRP	-0.387
RRIRDRPPRLPRPRPRPGPPPRP	0.733
RRIRARPPRLPRPRPRPDFYPRP	0.0576
RRIRHRPPRLPRPRPRPCIAPRP	-0.46
RRIRPRPPRLPRPRPRPAKLPRP	0.0398
RRIRGRPPRLPRPRPRPPVSPRP	0.604
RRIRSRPPRLPRPRPRPDNCPRP	-0.103
RRIRVRPPRLPRPRPRPLSQPRP	-0.032
RRIRDRPPRLPRPRPRPQGVPRP	0.0763
RRIRTRPPRLPRPRPRPDDSPRP	-1.36
RRIRPRPPRLPRPRPRPAKHPRP	-0.023
RRIRIRPPRLPRPRPRPDERPRP	-0.0172
RRIRCRPPRLPRPRPRPGVSPRP	0.0886
RRIRIRPPRLPRPRPRPCNQPRP	-0.297
RRIRGRPPRLPRPRPRPRQHPRP	0.305
RRIRPRPPRLPRPRPRPCQFPRP	-0.246
RRIRGRPPRLPRPRPRPFEPPRP	0.267
RRIRDRPPRLPRPRPRPVIFPRP	0.212

Sequence	shrunken log2 fold change
RRIRNRPPRLPRPRPRPKQHPRP	-0.253
RRIRHRPPRLPRPRPRPSMWPRP	-0.095
RRIRWRPPRLPRPRPRPITLPRP	0.107
RRIRCRPPRLPRPRPRPFETPRP	-0.0151
RRIRNRPPRLPRPRPRPNIWPRP	-0.636
RRIRWRPPRLPRPRPRPTHEPRP	0.219
RRIRMRPPRLPRPRPRPLNNPRP	0.0119
RRIRQRPPRLPRPRPRPSTKPRP	0.0644
RRIRYRPPRLPRPRPRPSAMPRP	-0.0964
RRIRTRPPRLPRPRPRPWHAPRP	0.093
RRIRPRPPRLPRPRPRPLKMPRP	-0.124
RRIRQRPPRLPRPRPRPTHRPRP	-0.000309
RRIRLRPPRLPRPRPRPCCHPRP	-0.215
RRIRWRPPRLPRPRPRPILFPRP	-0.456
RRIRGRPPRLPRPRPRPVHVPRP	0.0798
RRIRCRPPRLPRPRPRPFQCPRP	-0.296
RRIRCRPPRLPRPRPRPFATPRP	0.287
RRIRWRPPRLPRPRPRPLNIPRP	-0.211
RRIRKRPPRLPRPRPRPGKTPRP	-0.0179
RRIRPRPPRLPRPRPRPQGIPRP	0.102
RRIRSRPPRLPRPRPRPPPRPRP	1.09
RRIRKRPPRLPRPRPRPFGWPRP	0.682
RRIRGRPPRLPRPRPRPKIQPRP	0.369

Sequence	shrunken log2 fold change
RRIRKRPPRLPRPRPRPCIDPRP	-0.0418
RRIRGRPPRLPRPRPRPQWSPRP	0.157
RRIRMRPPRLPRPRPRPFRFPRP	0.089
RRIRARPPRLPRPRPRPNNIPRP	-0.537
RRIRHRPPRLPRPRPRPVTEPRP	-0.0954
RRIRERPPRLPRPRPRPIQWPRP	0.0338
RRIRPRPPRLPRPRPRPEVCPRP	0.138
RRIRHRPPRLPRPRPRPTCFPRP	0.0654
RRIRQRPPRLPRPRPRPWDDPRP	-0.00146
RRIRDRPPRLPRPRPRPCDSPRP	-0.0465
RRIRKRPPRLPRPRPRPSQWPRP	0.144
RRIRIRPPRLPRPRPRPFVPPRP	-0.722
RRIRIRPPRLPRPRPRPDGLPRP	0.0731
RRIRPRPPRLPRPRPRPPYFPRP	0.0747
RRIRYRPPRLPRPRPRPCRHPRP	-0.394
RRIRFRPPRLPRPRPRPKFCPRP	0.00718
RRIRNRPPRLPRPRPRPHIGPRP	-0.0161
RRIRHRPPRLPRPRPRPRPRPRP	0.707
RRIRQRPPRLPRPRPRPFCEPRP	-0.0314
RRIRLRPPRLPRPRPRPWLLPRP	-0.172
RRIRPRPPRLPRPRPRPGIDPRP	-0.0536
RRIRDRPPRLPRPRPRPLVLPRP	0.176
RRIRHRPPRLPRPRPRPDVTPRP	-0.0437

Sequence	shrunken log2 fold change
RRIRARPPRLPRPRPRPKACPRP	0.19
RRIRVRPPRLPRPRPRPVCPPRP	0.0825
RRIRCRPPRLPRPRPRPHVEPRP	-0.421
RRIRKRPPRLPRPRPRPAKTPRP	0.0104
RRIRHRPPRLPRPRPRPIDAPRP	-0.105
RRIRDRPPRLPRPRPRPYKCPRP	-0.00925
RRIRFRPPRLPRPRPRPRTCPRP	-0.0542
RRIRPRPPRLPRPRPRPNHIPRP	-0.856
RRIRGRPPRLPRPRPRPRGLPRP	1.05
RRIRQRPPRLPRPRPRPYSGPRP	-0.126
RRIRDRPPRLPRPRPRPTSLPRP	-0.0226
RRIRFRPPRLPRPRPRPIFEPRP	-0.0328
RRIRCRPPRLPRPRPRPTKWPRP	-0.121
RRIRMRPPRLPRPRPRPLPGPRP	0.8
RRIRKRPPRLPRPRPRPQMTPRP	0.0443
RRIRNRPPRLPRPRPRPTDKPRP	0.008
RRIRVRPPRLPRPRPRPDMEPRP	0.0238
RRIRGRPPRLPRPRPRPIQWPRP	0.325
RRIRSRPPRLPRPRPRPGCIPRP	0.0242
RRIRRRPPRLPRPRPRPIRSPRP	0.022
RRIRERPPRLPRPRPRPHPRPRP	0.278
RRIRLRPPRLPRPRPRPKCFPRP	-0.00607
